The target of this experiment is T1, C1q (UniProt P02745 23-245; P02746 28-253; P02747 29-245).
T1 construct: complement C1q subcomponent subunit A; complement C1q subcomponent subunit B; complement C1q subcomponent subunit C; source: bought: Quidel (San Diego, CA); copies: + +
The experiment can be described thus: ELISA; competition; 0.8 ug CRP immobilised; 0.8 ug C1q with increasing L-ficolin or 0.8 ug L-ficolin with increasing C1q; TBS, 0.05% Tween-20, 1% HSA, pH 7.4, 2.5 mM calcium. The note with it: both partners purified.

T1 sequence (P02745 23-245, chain 1 of 3): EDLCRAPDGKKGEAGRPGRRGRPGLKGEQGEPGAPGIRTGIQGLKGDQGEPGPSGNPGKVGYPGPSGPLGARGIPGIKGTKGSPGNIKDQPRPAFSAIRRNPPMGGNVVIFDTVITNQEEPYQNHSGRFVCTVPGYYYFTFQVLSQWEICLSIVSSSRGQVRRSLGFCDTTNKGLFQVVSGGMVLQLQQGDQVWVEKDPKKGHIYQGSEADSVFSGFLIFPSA
T1 sequence (P02746 28-253, chain 2 of 3): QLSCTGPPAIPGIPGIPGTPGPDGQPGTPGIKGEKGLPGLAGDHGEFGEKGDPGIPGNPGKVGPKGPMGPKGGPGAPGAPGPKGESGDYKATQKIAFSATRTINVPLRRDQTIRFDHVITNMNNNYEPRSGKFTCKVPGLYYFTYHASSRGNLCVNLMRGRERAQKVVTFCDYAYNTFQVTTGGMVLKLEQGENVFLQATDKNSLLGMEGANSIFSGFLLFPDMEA
T1 sequence (P02747 29-245, chain 3 of 3): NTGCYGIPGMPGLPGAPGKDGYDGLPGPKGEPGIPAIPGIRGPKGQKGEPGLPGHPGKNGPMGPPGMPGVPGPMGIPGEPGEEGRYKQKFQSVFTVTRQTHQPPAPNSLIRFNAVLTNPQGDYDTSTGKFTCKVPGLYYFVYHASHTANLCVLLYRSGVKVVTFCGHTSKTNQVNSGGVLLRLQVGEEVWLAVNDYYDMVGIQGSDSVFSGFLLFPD

B1: C-reactive protein (CRP), human, purified (Sigma) (natural protein, UniProt P02741 19-224, looked up)
chain: QTDMSRKAFVFPKESDTSYVSLKAPLTKPLKAFTVCLHFYTELSSTRGYSIFSYATKRQDNEILIFWSKDIGYSFTVGGSEILFEVPEVTVAPVHICTSWESASGIVEFWVDGKPRVRKSLKKGYTVGAEASIILGQEQDSFGGNFEGSQSLVGDIGNVNMWDFVLSPDEINTIYLGGPFSPNVLNWRALKYEVQGEVFTKPQLWP
notes: human C-reactive protein, bought from Sigma; purity checked by SDS PAGE and mass spectrometry; source: bought: Sigma
As to B1, the binding result was “binds”.

The record behind these values is PMC2629585, “Local Inflammation Induces Complement Crosstalk Which Amplifies the Antimicrobial Response” (PLoS Pathogens, 2009).
